The values that follow are results of earlier work, collected in paper PMC5811428.

For orientation: Kd means the free concentration of one partner at which half of the binding sites on the other are occupied at equilibrium, for simple one-to-one binding.

This data set addresses C5aR (Homo sapiens) (UniProt P21730).
Sequence of UniProt P21730 (P21730 whole entry): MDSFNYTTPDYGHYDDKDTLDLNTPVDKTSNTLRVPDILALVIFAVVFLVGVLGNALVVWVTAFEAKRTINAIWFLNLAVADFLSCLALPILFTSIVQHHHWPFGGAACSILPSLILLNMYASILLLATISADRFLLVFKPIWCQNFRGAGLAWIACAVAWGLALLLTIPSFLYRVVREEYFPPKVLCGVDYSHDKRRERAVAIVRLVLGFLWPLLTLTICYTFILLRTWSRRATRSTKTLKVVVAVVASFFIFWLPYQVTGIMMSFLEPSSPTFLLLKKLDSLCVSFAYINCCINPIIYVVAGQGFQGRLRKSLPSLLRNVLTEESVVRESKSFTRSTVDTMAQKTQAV

Consider “hC5a C-terminal peptide CT peptide (from UniProt P01031)”, for which the Kd was 150 µM.
